The record followed here is publication PMC9274624.

As a reminder, the Kd is the free concentration of one partner at which half of the binding sites on the other are occupied at equilibrium, for simple one-to-one binding.

The target of the experiment is Malayan pangolin ACE2 extracellular domain (residues 1-740) fused with the Fc domain of mouse IgG (Malayan pangolin). Put plainly: SPR.

Regarding “SARS-CoV-2 Delta RBD (residues 319-541) (from UniProt P0DTC2 319-541) (domain or fragment)”, the Kd turned out to be 0.0582 µM.
